*1 amine or outer side, *2 acyl side, *3 side chain or, on linkers, in order; H or OH if unused. [ ]: non-standard residue; d: D form. TyrEtNAc = L-tyrosine O-ethyl acetamide, (S)-3-(4-(2-acetamidoethoxy)phenyl)-2-aminopropanoic acid, CC(=O)NCCOc1ccc(C[C@H](N[*:1])C(=O)[*:2])cc1; 3Pal4Ph4CO2H = (S)-4-(5-(2-amino-2-carboxyethyl)pyridin-2-yl)benzoic acid, O=C([C@H](Cc1ccc(-c2ccc(C(=O)[*:3])cc2)nc1)N[*:1])[*:2]; hF3CF3 = (S)-2-amino-4-(3-(trifluoromethyl)phenyl)butanoic acid, O=C([C@H](CCc1cccc(C(F)(F)F)c1)N[*:1])[*:2]; hF2CF3 = (S)-2-amino-4-(2-(trifluoromethyl)phenyl)butanoic acid, O=C([C@H](CCc1ccccc1C(F)(F)F)N[*:1])[*:2]; Pro(trans-4-NH2) = O=C([C@@H]1C[C@@H](N[*:3])CN1[*:1])[*:2]; Bip(4'-COOH) = N[C@@H](Cc1ccc(-c2ccc(C(=O)O)cc2)cc1)C(=O)O; 1Nal(3S-Me) = C[C@@H](c1cccc2ccccc12)[C@H](N)C(=O)O; hPhe(4-CF3) = N[C@@H](CCc1ccc(C(F)(F)F)cc1)C(=O)O; Ala(pyrimidin-5-yl) = N[C@@H](Cc1cncnc1)C(=O)O; Phe(4-COOH) = N[C@@H](Cc1ccc(C(=O)O)cc1)C(=O)O; Trp(7-aza) = N[C@@H](Cc1c[nH]c2ncccc12)C(=O)O; h3Pal(5-CN) = N#Cc1cncc(CC[C@H](N)C(=O)O)c1; Ala(4-THP) = N[C@@H](CC1CCOCC1)C(=O)O; hTyr = N[C@@H](CCc1ccc(O)cc1)C(=O)O; 4Pal = N[C@@H](Cc1ccncc1)C(=O)O; dDab = NCC[C@@H](N)C(=O)O; dNMeA = CN[C@H](C)C(=O)O; Dap = NC[C@H](N)C(=O)O; Aib = CC(C)(N)C(=O)O
Each binder was assayed against Recombinant human IL-1β (BioLegend 579404) (human, UniProt P01584 117-269) (assay: cell-based or functional assay).

MRC5 IC50 [nM]	Binder
0.196	cyclo([TyrEtNAc]W[Phe(4-COOH)]G[Pro(trans-4-NH2)][1Nal(3S-Me)]D[dNMeA]G[Bip(4'-COOH)]KL[dA][hTyr]) (SMILES CC(=O)NCCOc1ccc(C[C@@H]2NC(=O)[C@H](CCc3ccc(O)cc3)NC(=O)[C@@H](C)NC(=O)[C@H](CC(C)C)NC(=O)[C@H](CCCCN)NC(=O)[C@H](Cc3ccc(-c4ccc(C(=O)O)cc4)cc3)NC(=O)CNC(=O)[C@@H](C)N(C)C(=O)[C@H](CC(=O)O)NC(=O)[C@H]([C@@H](C)c3cccc4ccccc34)NC(=O)[C@@H]3C[C@@H](N)CN3C(=O)CNC(=O)[C@H](Cc3ccc(C(=O)O)cc3)NC(=O)[C@H](Cc3c[nH]c4ccccc34)NC2=O)cc1) [SEQ ID NO: 110]
0.0233	cyclo([TyrEtNAc]W[Phe(4-COOH)]G[Pro(trans-4-NH2)][1Nal(3S-Me)]D[dNMeA]G[Bip(4'-COOH)][Trp(7-aza)]G[dDab][h3Pal(5-CN)]) (SMILES CC(=O)NCCOc1ccc(C[C@@H]2NC(=O)[C@H](CCc3cncc(C#N)c3)NC(=O)[C@@H](CCN)NC(=O)CNC(=O)[C@H](Cc3c[nH]c4ncccc34)NC(=O)[C@H](Cc3ccc(-c4ccc(C(=O)O)cc4)cc3)NC(=O)CNC(=O)[C@@H](C)N(C)C(=O)[C@H](CC(=O)O)NC(=O)[C@H]([C@@H](C)c3cccc4ccccc34)NC(=O)[C@@H]3C[C@@H](N)CN3C(=O)CNC(=O)[C@H](Cc3ccc(C(=O)O)cc3)NC(=O)[C@H](Cc3c[nH]c4ccccc34)NC2=O)cc1) [SEQ ID NO: 114]
0.0263	cyclo([TyrEtNAc]W[Phe(4-COOH)]G[Pro(trans-4-NH2)][1Nal(3S-Me)]D[dNMeA]G[Bip(4'-COOH)][Ala(4-THP)]G[dDab][h3Pal(5-CN)]) (SMILES CC(=O)NCCOc1ccc(C[C@@H]2NC(=O)[C@H](CCc3cncc(C#N)c3)NC(=O)[C@@H](CCN)NC(=O)CNC(=O)[C@H](CC3CCOCC3)NC(=O)[C@H](Cc3ccc(-c4ccc(C(=O)O)cc4)cc3)NC(=O)CNC(=O)[C@@H](C)N(C)C(=O)[C@H](CC(=O)O)NC(=O)[C@H]([C@@H](C)c3cccc4ccccc34)NC(=O)[C@@H]3C[C@@H](N)CN3C(=O)CNC(=O)[C@H](Cc3ccc(C(=O)O)cc3)NC(=O)[C@H](Cc3c[nH]c4ccccc34)NC2=O)cc1) [SEQ ID NO: 106]
0.0775	cyclo([TyrEtNAc]W[Phe(4-COOH)]G[Pro(trans-4-NH2)][1Nal(3S-Me)]D[dNMeA]G[Bip(4'-COOH)]KG[dNMeA][hTyr]) (SMILES CC(=O)NCCOc1ccc(C[C@@H]2NC(=O)[C@H](CCc3ccc(O)cc3)NC(=O)[C@@H](C)N(C)C(=O)CNC(=O)[C@H](CCCCN)NC(=O)[C@H](Cc3ccc(-c4ccc(C(=O)O)cc4)cc3)NC(=O)CNC(=O)[C@@H](C)N(C)C(=O)[C@H](CC(=O)O)NC(=O)[C@H]([C@@H](C)c3cccc4ccccc34)NC(=O)[C@@H]3C[C@@H](N)CN3C(=O)CNC(=O)[C@H](Cc3ccc(C(=O)O)cc3)NC(=O)[C@H](Cc3c[nH]c4ccccc34)NC2=O)cc1) [SEQ ID NO: 109]
0.041	cyclo([TyrEtNAc]W[Phe(4-COOH)]G[Pro(trans-4-NH2)][1Nal(3S-Me)]D[dNMeA]G[Bip(4'-COOH)][4Pal]S[dA][hF3CF3]) (SMILES CC(=O)NCCOc1ccc(C[C@@H]2NC(=O)[C@H](CCc3cccc(C(F)(F)F)c3)NC(=O)[C@@H](C)NC(=O)[C@H](CO)NC(=O)[C@H](Cc3ccncc3)NC(=O)[C@H](Cc3ccc(-c4ccc(C(=O)O)cc4)cc3)NC(=O)CNC(=O)[C@@H](C)N(C)C(=O)[C@H](CC(=O)O)NC(=O)[C@H]([C@@H](C)c3cccc4ccccc34)NC(=O)[C@@H]3C[C@@H](N)CN3C(=O)CNC(=O)[C@H](Cc3ccc(C(=O)O)cc3)NC(=O)[C@H](Cc3c[nH]c4ccccc34)NC2=O)cc1) [SEQ ID NO: 104]
0.066	cyclo([TyrEtNAc]W[Phe(4-COOH)]G[Pro(trans-4-NH2)][1Nal(3S-Me)]D[dNMeA]G[Bip(4'-COOH)][4Pal]S[dA][hF2CF3]) (SMILES CC(=O)NCCOc1ccc(C[C@@H]2NC(=O)[C@H](CCc3ccccc3C(F)(F)F)NC(=O)[C@@H](C)NC(=O)[C@H](CO)NC(=O)[C@H](Cc3ccncc3)NC(=O)[C@H](Cc3ccc(-c4ccc(C(=O)O)cc4)cc3)NC(=O)CNC(=O)[C@@H](C)N(C)C(=O)[C@H](CC(=O)O)NC(=O)[C@H]([C@@H](C)c3cccc4ccccc34)NC(=O)[C@@H]3C[C@@H](N)CN3C(=O)CNC(=O)[C@H](Cc3ccc(C(=O)O)cc3)NC(=O)[C@H](Cc3c[nH]c4ccccc34)NC2=O)cc1) [SEQ ID NO: 103]
0.0617	cyclo([TyrEtNAc]W[Phe(4-COOH)]G[Pro(trans-4-NH2)][1Nal(3S-Me)]D[dNMeA]G[Bip(4'-COOH)]KS[dA][hTyr]) (SMILES CC(=O)NCCOc1ccc(C[C@@H]2NC(=O)[C@H](CCc3ccc(O)cc3)NC(=O)[C@@H](C)NC(=O)[C@H](CO)NC(=O)[C@H](CCCCN)NC(=O)[C@H](Cc3ccc(-c4ccc(C(=O)O)cc4)cc3)NC(=O)CNC(=O)[C@@H](C)N(C)C(=O)[C@H](CC(=O)O)NC(=O)[C@H]([C@@H](C)c3cccc4ccccc34)NC(=O)[C@@H]3C[C@@H](N)CN3C(=O)CNC(=O)[C@H](Cc3ccc(C(=O)O)cc3)NC(=O)[C@H](Cc3c[nH]c4ccccc34)NC2=O)cc1) [SEQ ID NO: 112]
0.0918	cyclo([TyrEtNAc]W[Phe(4-COOH)]G[Pro(trans-4-NH2)][1Nal(3S-Me)]D[dNMeA]G[Bip(4'-COOH)][Ala(pyrimidin-5-yl)]G[dDab][h3Pal(5-CN)]) (SMILES CC(=O)NCCOc1ccc(C[C@@H]2NC(=O)[C@H](CCc3cncc(C#N)c3)NC(=O)[C@@H](CCN)NC(=O)CNC(=O)[C@H](Cc3cncnc3)NC(=O)[C@H](Cc3ccc(-c4ccc(C(=O)O)cc4)cc3)NC(=O)CNC(=O)[C@@H](C)N(C)C(=O)[C@H](CC(=O)O)NC(=O)[C@H]([C@@H](C)c3cccc4ccccc34)NC(=O)[C@@H]3C[C@@H](N)CN3C(=O)CNC(=O)[C@H](Cc3ccc(C(=O)O)cc3)NC(=O)[C@H](Cc3c[nH]c4ccccc34)NC2=O)cc1) [SEQ ID NO: 113]
0.0582	cyclo([TyrEtNAc]W[Phe(4-COOH)]G[Pro(trans-4-NH2)][1Nal(3S-Me)]D[dNMeA]G[Bip(4'-COOH)]KG[Aib][hTyr]) (SMILES CC(=O)NCCOc1ccc(C[C@@H]2NC(=O)[C@H](CCc3ccc(O)cc3)NC(=O)C(C)(C)NC(=O)CNC(=O)[C@H](CCCCN)NC(=O)[C@H](Cc3ccc(-c4ccc(C(=O)O)cc4)cc3)NC(=O)CNC(=O)[C@@H](C)N(C)C(=O)[C@H](CC(=O)O)NC(=O)[C@H]([C@@H](C)c3cccc4ccccc34)NC(=O)[C@@H]3C[C@@H](N)CN3C(=O)CNC(=O)[C@H](Cc3ccc(C(=O)O)cc3)NC(=O)[C@H](Cc3c[nH]c4ccccc34)NC2=O)cc1) [SEQ ID NO: 107]
0.091	cyclo([TyrEtNAc]W[Phe(4-COOH)]G[Pro(trans-4-NH2)][1Nal(3S-Me)]D[dNMeA]G[Bip(4'-COOH)][4Pal]S[dA][hPhe(4-CF3)]) (SMILES CC(=O)NCCOc1ccc(C[C@@H]2NC(=O)[C@H](CCc3ccc(C(F)(F)F)cc3)NC(=O)[C@@H](C)NC(=O)[C@H](CO)NC(=O)[C@H](Cc3ccncc3)NC(=O)[C@H](Cc3ccc(-c4ccc(C(=O)O)cc4)cc3)NC(=O)CNC(=O)[C@@H](C)N(C)C(=O)[C@H](CC(=O)O)NC(=O)[C@H]([C@@H](C)c3cccc4ccccc34)NC(=O)[C@@H]3C[C@@H](N)CN3C(=O)CNC(=O)[C@H](Cc3ccc(C(=O)O)cc3)NC(=O)[C@H](Cc3c[nH]c4ccccc34)NC2=O)cc1) [SEQ ID NO: 105]
0.0908	cyclo([3Pal4Ph4CO2H]W[Phe(4-COOH)]G[Pro(trans-4-NH2)][1Nal(3S-Me)]D[dNMeA]G[Bip(4'-COOH)]W[Dap][dA][hTyr]) (SMILES C[C@@H]1C(=O)NCC(=O)N[C@@H](Cc2ccc(-c3ccc(C(=O)O)cc3)cc2)C(=O)N[C@@H](Cc2c[nH]c3ccccc23)C(=O)N[C@@H](CN)C(=O)N[C@H](C)C(=O)N[C@@H](CCc2ccc(O)cc2)C(=O)N[C@@H](Cc2ccc(-c3ccc(C(=O)O)cc3)nc2)C(=O)N[C@@H](Cc2c[nH]c3ccccc23)C(=O)N[C@@H](Cc2ccc(C(=O)O)cc2)C(=O)NCC(=O)N2C[C@H](N)C[C@H]2C(=O)N[C@@H]([C@@H](C)c2cccc3ccccc23)C(=O)N[C@@H](CC(=O)O)C(=O)N1C) [SEQ ID NO: 11]
0.102	cyclo([TyrEtNAc]W[Phe(4-COOH)]G[Pro(trans-4-NH2)][1Nal(3S-Me)]D[dNMeA]G[Bip(4'-COOH)]KG[dA][hTyr]) (SMILES CC(=O)NCCOc1ccc(C[C@@H]2NC(=O)[C@H](CCc3ccc(O)cc3)NC(=O)[C@@H](C)NC(=O)CNC(=O)[C@H](CCCCN)NC(=O)[C@H](Cc3ccc(-c4ccc(C(=O)O)cc4)cc3)NC(=O)CNC(=O)[C@@H](C)N(C)C(=O)[C@H](CC(=O)O)NC(=O)[C@H]([C@@H](C)c3cccc4ccccc34)NC(=O)[C@@H]3C[C@@H](N)CN3C(=O)CNC(=O)[C@H](Cc3ccc(C(=O)O)cc3)NC(=O)[C@H](Cc3c[nH]c4ccccc34)NC2=O)cc1) [SEQ ID NO: 108]
0.133	cyclo([TyrEtNAc]W[Phe(4-COOH)]G[Pro(trans-4-NH2)][1Nal(3S-Me)]D[dNMeA]G[Bip(4'-COOH)]KS[dA][hPhe(4-CF3)]) (SMILES CC(=O)NCCOc1ccc(C[C@@H]2NC(=O)[C@H](CCc3ccc(C(F)(F)F)cc3)NC(=O)[C@@H](C)NC(=O)[C@H](CO)NC(=O)[C@H](CCCCN)NC(=O)[C@H](Cc3ccc(-c4ccc(C(=O)O)cc4)cc3)NC(=O)CNC(=O)[C@@H](C)N(C)C(=O)[C@H](CC(=O)O)NC(=O)[C@H]([C@@H](C)c3cccc4ccccc34)NC(=O)[C@@H]3C[C@@H](N)CN3C(=O)CNC(=O)[C@H](Cc3ccc(C(=O)O)cc3)NC(=O)[C@H](Cc3c[nH]c4ccccc34)NC2=O)cc1) [SEQ ID NO: 111]
